Where a chain is given by its changes, count along the chain named. Numbers in names are those of the source.
Key:
[1] = target: T1, immobilized recombinant IL13Rα1 (UniProt P78552 22-343, limits assumed); experiment: yeast-displayed IL13 variant; surface plasmon resonance with immobilized recombinant receptor, as the filing words it
T1 construct: also called IL13Ra1
T1 sequence (looked up): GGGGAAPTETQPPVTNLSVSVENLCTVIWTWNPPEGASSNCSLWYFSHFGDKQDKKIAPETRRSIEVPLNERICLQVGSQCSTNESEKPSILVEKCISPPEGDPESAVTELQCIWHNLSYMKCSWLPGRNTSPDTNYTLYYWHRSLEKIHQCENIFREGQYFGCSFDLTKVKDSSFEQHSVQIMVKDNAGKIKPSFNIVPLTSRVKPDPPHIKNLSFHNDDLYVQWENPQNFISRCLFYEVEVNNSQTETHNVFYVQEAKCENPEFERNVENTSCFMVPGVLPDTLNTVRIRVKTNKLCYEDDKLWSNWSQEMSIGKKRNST
Excerpt: (§1) In an effort to identify IL13 variants with increased selectivity for binding IL13Rα2 relative to IL13Rα1. To assess receptor binding various mutants were compared to wild-type IL13 ([…] […]; SEQ ID NO: 1) and the previously known […] E11Y mutant ([…] […]; SEQ ID NO: 69). […] Surface plasmon resonance with immobilized recombinant IL13Rα1 and immobilized IL13Rα2 was used to assess binding affinity. As expected, WT bound strongly to both IL13Rα1 and IL13Rα2.

immobilized IL13Rα2 = target: T2, immobilized IL13Rα2 (UniProt Q14627 27-343, limits assumed); experiment: yeast-displayed IL13; surface plasmon resonance with immobilized recombinant receptor, as the filing words it
T2 construct: also called IL13Ra2
T2 sequence (looked up): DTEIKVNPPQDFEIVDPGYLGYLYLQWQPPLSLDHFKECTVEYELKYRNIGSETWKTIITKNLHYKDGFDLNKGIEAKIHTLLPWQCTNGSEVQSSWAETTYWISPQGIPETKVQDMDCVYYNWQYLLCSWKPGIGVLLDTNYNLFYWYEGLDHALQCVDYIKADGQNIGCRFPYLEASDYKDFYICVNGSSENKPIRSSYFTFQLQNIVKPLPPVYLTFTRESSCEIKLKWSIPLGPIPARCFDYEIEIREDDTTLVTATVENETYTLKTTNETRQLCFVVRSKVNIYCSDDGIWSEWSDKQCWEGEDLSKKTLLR
Excerpt: as §1

B1: IL13 variant RLK (E11R: E90L: R107K) (ligand)
chain: GPVPPSTALRRLIEELVNITQNQKAPLCNGSMVWSINLTAGMYCAALESLINVSGCSAIEKTQRMLSGFCPHKVSAGQFSSLHVRDTKILVAQFVKDLLLHLKKLFKEGRFN
notes: display scaffold not described
For B1, the binding result [1] was “no binding” and the Kd (immobilized IL13Rα2) was 28 nM.

B2: IL13 variant YLK (E11Y: E90L: R107K) (ligand)
chain: B1 chain with R11Y
notes: as for B1
B2 was tested, and the binding result [1] was “no binding” and the Kd (immobilized IL13Rα2) was 26 nM.
